Reference: patent US12404336 (dated 2025)

T1: His tagged human TIGIT protein (human, UniProt Q495A1 22-141)
T1 chain: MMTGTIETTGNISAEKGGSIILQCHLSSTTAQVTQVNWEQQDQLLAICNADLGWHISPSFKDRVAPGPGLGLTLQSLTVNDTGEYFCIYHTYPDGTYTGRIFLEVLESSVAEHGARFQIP

T2: human TIGIT on transfected CHOK1 cells (human, UniProt Q495A1 22-244)
T2 chain: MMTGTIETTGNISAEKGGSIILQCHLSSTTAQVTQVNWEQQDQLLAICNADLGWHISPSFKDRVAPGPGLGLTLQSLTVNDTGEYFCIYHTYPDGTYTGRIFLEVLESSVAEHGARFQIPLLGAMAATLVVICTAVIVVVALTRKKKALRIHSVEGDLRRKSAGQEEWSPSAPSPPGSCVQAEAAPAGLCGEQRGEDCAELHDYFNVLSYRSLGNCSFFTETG

T3: human LAG-3 fused to mouse IgG2a (huLAG-3-mIgG2a) (human, UniProt P18627 23-450)
T3 chain: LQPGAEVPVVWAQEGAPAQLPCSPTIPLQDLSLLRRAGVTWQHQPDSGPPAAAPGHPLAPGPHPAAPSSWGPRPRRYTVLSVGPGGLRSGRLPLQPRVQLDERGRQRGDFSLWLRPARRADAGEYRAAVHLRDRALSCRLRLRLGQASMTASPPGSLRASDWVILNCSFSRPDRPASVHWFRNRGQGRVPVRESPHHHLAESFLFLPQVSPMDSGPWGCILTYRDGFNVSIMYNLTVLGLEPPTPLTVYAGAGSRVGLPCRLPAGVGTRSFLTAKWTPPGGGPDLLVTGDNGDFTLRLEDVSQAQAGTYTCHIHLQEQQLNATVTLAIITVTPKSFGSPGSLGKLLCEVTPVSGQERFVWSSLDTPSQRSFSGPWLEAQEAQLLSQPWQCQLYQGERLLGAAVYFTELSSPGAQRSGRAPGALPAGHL

T4: human LAG-3 on CHO-K1 cells (human, UniProt P18627 23-525)
T4 chain: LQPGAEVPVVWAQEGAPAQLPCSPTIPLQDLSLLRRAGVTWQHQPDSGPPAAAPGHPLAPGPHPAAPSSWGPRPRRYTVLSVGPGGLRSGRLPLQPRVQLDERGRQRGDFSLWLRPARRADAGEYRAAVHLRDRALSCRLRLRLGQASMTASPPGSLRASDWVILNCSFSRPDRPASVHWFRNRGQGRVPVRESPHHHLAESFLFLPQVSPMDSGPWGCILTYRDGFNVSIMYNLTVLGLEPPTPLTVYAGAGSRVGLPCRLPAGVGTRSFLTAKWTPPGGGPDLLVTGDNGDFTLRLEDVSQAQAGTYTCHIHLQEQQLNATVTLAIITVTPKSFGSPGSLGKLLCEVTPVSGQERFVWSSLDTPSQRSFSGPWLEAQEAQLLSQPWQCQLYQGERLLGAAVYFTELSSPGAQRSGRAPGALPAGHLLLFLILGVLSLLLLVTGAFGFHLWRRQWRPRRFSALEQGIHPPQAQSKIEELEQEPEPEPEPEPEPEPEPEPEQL

T5: His tagged human LAG-3 (human, UniProt P18627 23-450)
T5 chain: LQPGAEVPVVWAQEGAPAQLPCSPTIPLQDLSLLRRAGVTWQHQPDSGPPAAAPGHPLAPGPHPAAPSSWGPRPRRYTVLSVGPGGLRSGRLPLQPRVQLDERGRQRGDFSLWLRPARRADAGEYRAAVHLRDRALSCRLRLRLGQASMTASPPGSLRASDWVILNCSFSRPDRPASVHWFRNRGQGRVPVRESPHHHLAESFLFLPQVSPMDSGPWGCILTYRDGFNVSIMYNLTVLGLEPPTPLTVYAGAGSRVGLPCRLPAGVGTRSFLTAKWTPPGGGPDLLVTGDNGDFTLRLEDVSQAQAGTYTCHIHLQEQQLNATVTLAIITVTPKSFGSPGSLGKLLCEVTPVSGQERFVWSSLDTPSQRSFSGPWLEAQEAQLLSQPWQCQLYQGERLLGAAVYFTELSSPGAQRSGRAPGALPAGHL


Columns and labels:
[1] = target: His tagged human PD-1 protein (human, UniProt Q15116 25-167); assay: BLI
[2] = target: T1, His tagged human TIGIT protein; assay: BLI
[3] = target: T2, human TIGIT on transfected CHOK1 cells; assay: cell-based blocking of TIGIT/PVR
[4] = target: T3, human LAG-3 fused to mouse IgG2a …; assay: cell-based blocking of LAG-3-muFc binding to MHC on Raji cells
[5] = target: T4, human LAG-3 on CHO-K1 cells; assay: flow cytometry binding
[6] = target: T3, human LAG-3 fused to mouse IgG2a …; assay: SPR
His tagged human LAG-3 = target: T5, His tagged human LAG-3; assay: SPR
[7] = target: T3, human LAG-3 fused to mouse IgG2a …; assay: cell-based blocking of LAG-3/MHC II
[8] = target: T1, His tagged human TIGIT protein; assay: sandwich ELISA; simultaneous binding of LAG-3-muFc and His-tagged TIGIT

Sequence of His tagged human PD-1 protein (Q15116 25-167): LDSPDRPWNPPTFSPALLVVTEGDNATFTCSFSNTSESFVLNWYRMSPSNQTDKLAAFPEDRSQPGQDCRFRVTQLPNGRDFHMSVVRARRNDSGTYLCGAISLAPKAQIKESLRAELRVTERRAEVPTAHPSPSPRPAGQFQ

| Kd [1] [nM] | IC50 [3] [nM] | IC50 [4] [nM] | IC50 [7] [nM] | EC50 [8] [µg/mL] | Binder | other results |
| --- | --- | --- | --- | --- | --- | --- |
| 2.9 |  |  |  |  | Bi-TPM-94A (antibody) chain 1: not shown chain 2: DIQMTQSPSFLSASVGDRVTITCKASQNVGTNVAWYQQKPGKAPKALIYSASYRYSGVPSRFSGSGSGTEFTLTISSLQPEDFATYYCQQYYSYPYTFGQGTKLEIKRTVAAPSVFIFPPSDEQLKSGTASVVCLLNNFYPREAKVQWKVDNALQSGNSQESVTEQDSKDSTYSLSSTLTLSKADYEKHKVYACEVTHQGLSSPVTKSFNRGEC |  |
| 2.7 | 0.13 |  |  |  | Bi-TPM-94B (antibody) chain 1: not shown chain 2: DIQMTQSPSFLSASVGDRVTITCKASQNVGTNVAWYQQKPGKAPKALIYSASYRYSGVPSRFSGSGSGTEFTLTISSLQPEDFATYYCQQYYSYPYTFGQGTKLEIKRTVAAPSVFIFPPSDEQLKSGTASVVCLLNNFYPREAKVQWKVDNALQSGNSQESVTEQDSKDSTYSLSSTLTLSKADYEKHKVYACEVTHQGLSSPVTKSFNRGEC | Kd [2]: 1.7 nM |
|  |  | 3.74 |  |  | chimeric 2L2A antibody (antibody, V domains shown) VH: EVQLQQSGPVLVKPGASVKMSCKASGYTLTDYYMNWMKQSHGKSLEWIGVINPYNGDTSCNQKFKGKATLTADKSSSTAYMELNSLTSDDSAVYYCVRDDGYYVHYFDYWGQGTTLTVSS VL: DIQMTQSPSSLSASLGERVTLTCRASQDISSRLTWLQQEPDGTIKRLIYATSSLDSGVPKRFNGSRSGSDYSLTISSLESEDFVDYYCLQYASSPLTFGAGTKLELKR |  |
|  |  | 1.97 |  |  | 2L2A.1 (antibody, V domains shown) VH: QVQLVQSGAEVKKPGASVKVSCKASGYTLTDYYMNWMRQAPGQGLEWMGVINPYNGDTSYNQKFKGRVTMTRDTSTSTVYMELSSLRSEDTAVYYCVRDDGYYVHYFDYWGQGTLVTVSS VL: DIQMTQSPSSLSASVGDRVTITCRASQDISSRLTWLQQEPEKAPKRLIYATSSLDSGVPKRFSGSGSGTDFTLTISSLQPEDFATYYCLQYASSPLTFGGGTKVEIK | EC50 [5]: 1.48 nM; Kd [6]: 0.001 nM; Kd (His tagged human LAG-3): 1.42 nM |
|  | 0.24 |  | 0.7 | 0.0107 | Bi-LT-1 (antibody) chain 1: not shown chain 2: DIQMTQSPSSLSASVGDRVTITCRASQDISSRLTWLQQKPEKAPKRLIYATSSLDSGVPSRFSGSGSGTDFTLTISSLQPEDFATYYCLQYASSPLTFGGGTKVEIKRTVAAPSVFIFPPSDEQLKSGTASVVCLLNNFYPREAKVQWKVDNALQSGNSQESVTEQDSKDSTYSLSSTLTLSKADYEKHKVYACEVTHQGLSSPVTKSFNRGEC |  |
|  | 0.22 |  | 0.9 | 0.0108 | Bi-LT-3 (antibody) chain 1: not shown chain 2: DIQMTQSPSSLSASVGDRVTITCRASQDISSRLTWLQQKPEKAPKRLIYATSSLDSGVPSRFSGSGSGTDFTLTISSLQPEDFATYYCLQYASSPLTFGGGTKVEIKRTVAAPSVFIFPPSDEQLKSGTASVVCLLNNFYPREAKVQWKVDNALQSGNSQESVTEQDSKDSTYSLSSTLTLSKADYEKHKVYACEVTHQGLSSPVTKSFNRGEC |  |
